Patent US20070286858A1 (Pfizer, published 2007)

Legend:
[1] = molecular target: T1, murine RAGE-strep tag fusion protein (mouse, UniProt Q62151 23-343); experiment: ELISA, mRAGE-strep
T1 construct: also called mRAGE-strep; mRAGE-SA
T1 chain: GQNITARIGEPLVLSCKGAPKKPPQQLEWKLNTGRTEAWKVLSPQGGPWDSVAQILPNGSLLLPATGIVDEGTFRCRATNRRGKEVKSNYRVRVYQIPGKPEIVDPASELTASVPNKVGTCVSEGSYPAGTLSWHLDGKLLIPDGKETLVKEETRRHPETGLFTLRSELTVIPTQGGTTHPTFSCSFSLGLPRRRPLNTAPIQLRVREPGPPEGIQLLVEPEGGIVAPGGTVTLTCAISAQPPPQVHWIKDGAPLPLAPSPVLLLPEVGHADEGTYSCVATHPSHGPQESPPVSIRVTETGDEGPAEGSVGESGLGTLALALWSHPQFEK

[2] = molecular target: T2, human RAGE V-region-Fc fusion protein (human, UniProt Q15109 23-118); experiment: direct binding ELISA, coated hRAGE V-region-Fc
T2 construct: also called hRAGE V-domain-Fc; hRAGE-V-Fc (CM); not shown: Fc domain of human IgG
Description: Antibodies were purified from hybridoma supernatants using standard procedures. Purified antibodies were evaluated for binding to soluble forms of RAGE with the use of ELISA. […] After washing and blocking with PBS containing 1% BSA and 0.05% Tween-20, 100 ul of sample (samples were in several forms: diluted immune serum, hybridoma supernatants, or purified antibodies, as indicated) was added and incubated for 1 hour at room temperature. The plates were washed with PBS, pH 7.2 and bound anti-RAGE antibodies were detected with the use of peroxidase-conjugated goat, anti-mouse IgG (H+L) (IgG) (Pierce, Rockford, Ill.) followed by incubation with the substrate TMB (BioFX Laboratories Owings Mills, Md. Laboratories). Absorbance values were determined at 450 nm in a spectrophotometer. The concentrations of monoclonal antibodies were determined with the use of peroxidase-labeled goat, anti-mouse IgG (Fcγ) (Pierce Rockford, Ill.) and a standard curve was generated by a purified, isotype-matched mouse IgG.

baboon RAGE = molecular target: T3, baboon RAGE (baboon (Papio cyanocephalus), UniProt Q15109 23-404 (human entry)); experiment: cell-based ELISA, 293 cells transfected with baboon RAGE
T3 construct: On transfected 293 cells or endogenous in baboon lung sections; also called 293-baboon RAGE; RAGE in baboon lung
T3 chain: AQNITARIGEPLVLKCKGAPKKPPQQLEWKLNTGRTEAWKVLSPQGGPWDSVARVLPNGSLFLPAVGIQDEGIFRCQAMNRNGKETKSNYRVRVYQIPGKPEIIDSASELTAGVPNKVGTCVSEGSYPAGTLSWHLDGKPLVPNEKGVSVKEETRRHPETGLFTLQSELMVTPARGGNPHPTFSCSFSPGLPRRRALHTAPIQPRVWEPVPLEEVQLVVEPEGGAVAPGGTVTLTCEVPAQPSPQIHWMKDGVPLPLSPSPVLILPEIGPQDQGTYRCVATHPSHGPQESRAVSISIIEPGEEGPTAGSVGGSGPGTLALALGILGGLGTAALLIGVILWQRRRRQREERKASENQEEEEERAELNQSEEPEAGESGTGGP
Description: (§1) Human embryonic kidney 293 cells (American Tissue Type Culture, Manassas, Va.) cells were plated at 5×10⁶ cells per 10 cm² tissue culture plate and cultured overnight at 37° C. The next day cells were transfected with RAGE expression plasmids (pAdori1-3 vector encoding mouse, human, baboon, cynomologus monkey or rabbit RAGE) using LF2000 reagent (Invitrogen, Carlsbad Calif.) at a 4:1 ratio of reagent to plasmid DNA using the manufacturers protocol. Cells were harvested 48 hrs post-transfection using trypsin, washed once with phosphate buffered saline (PBS), then suspended in growth media without serum at a concentration of 2×10⁶ cells/ml.
(§2) Primary antibodies at 1 μg/ml were serially diluted at 1:2 or 1:3 in PBS containing 1% bovine serum albumin (BSA) in a 96-well plate. RAGE-transfected 293 cells or control parental 293 cells (50 μl) at 2×10⁶ cells/ml in serum-free growth medium were added to U-bottom 96 well plate for a final concentration of 1×10⁵ cells/well. The cells were centrifuged at 1600 rpm for 2 minutes. The supernatants were gently discarded by hand with a one-time swing and the plate was patted gently to loose the cell pellet. […] The cells were centrifuged and the supernatants are transferred to a fresh plate and read at 450 nm (Soft MAX pro 4.0, Molecular Devices Corporation, Sunnyvale, Calif.).

cynomolgus monkey RAGE = molecular target: T4, cynomolgus monkey RAGE (cynomolgus monkey (Macaca fascicularis), UniProt Q15109 23-404 (human entry)); experiment: cell-based ELISA, 293 cells transfected with cynomolgus monkey RAGE
T4 construct: On transfected 293 cells or endogenous in monkey lung sections; also called 293-cyno monkey RAGE; RAGE in monkey lung
T4 chain: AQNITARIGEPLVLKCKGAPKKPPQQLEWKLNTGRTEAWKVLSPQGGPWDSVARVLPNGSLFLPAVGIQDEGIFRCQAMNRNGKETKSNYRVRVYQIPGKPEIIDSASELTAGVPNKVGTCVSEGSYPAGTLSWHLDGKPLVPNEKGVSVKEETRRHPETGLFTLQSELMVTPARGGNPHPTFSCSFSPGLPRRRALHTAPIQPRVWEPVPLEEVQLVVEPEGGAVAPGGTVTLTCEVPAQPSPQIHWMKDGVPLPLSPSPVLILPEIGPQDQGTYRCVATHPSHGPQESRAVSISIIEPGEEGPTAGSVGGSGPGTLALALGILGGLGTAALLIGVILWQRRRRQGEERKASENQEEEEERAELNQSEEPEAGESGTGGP
Description: as §1, §2

[3] = molecular target: T5, soluble human streptavidin-tagged RAGE (human, UniProt Q15109 23-344); experiment: BIACORE capture assay, antibody on CM5 chip, hRAGE-SA 0-100 nM in solution
T5 construct: also called hRAGE-SA; human RAGE-strep
Description: The assays were performed by coating antibodies onto a CM5 BIA chip with 5000-7000 RU.

[4] = molecular target: T6, human RAGE-Fc fusion protein (human, UniProt Q15109 23-344); experiment: antibody competition ELISA on hRAGE-Fc; competitor biotinylated XT-M4
T6 construct: also called hRAGE-Fc; huRAGE-Fc; not shown: Fc domain of human IgG

B1: XT-M4 (antibody, rat IgG2b, V domains shown)
VH: EVQLVESGGGLVQPGRSLKLSCVVSGFTFNNYWMTWIRQTPGKGLEWVASINNSGDNTYYPDSVKDRFTISRDNAKSTLYLQMNSLRSEDTATYYCTRGGDITTGFDYWGQGVMVTVSS
VL: DIQMTQSPSSMSVSLGDTITITCRASQDVGIYVNWFQQKPGKSPRRMIYRATNLADGVPSRFSGSRSGSIYSLTISSLESEDVADYHCLEFDEHPLTFGSGTKVEIK
notes: also called 1mRAGEP3/10; rat XT-M4
[1]
  binding result: binds
[2]
  EC50: 0.1 nM
Baboon RAGE
  EC50: ~1.33 nM
Cynomolgus monkey RAGE
  EC50: ~2.33 nM
[3]
  Ka: 2.03e+08 M⁻¹
  Kd: 4.92 nM
  koff: 0.0186 s⁻¹
  kon: 3.78e+06 M⁻¹ s⁻¹
[4]
  IC50 (read off the curve): ~0.4 µg/mL
